B1: RHOBTB2 (parent)
chain: LYTGELDENERDLMHIAHIAELLE

Variants of: B1
Assay: protein stability index of a GFP-peptide fusion (GPS, HEK-293T) (PSI 1-6); higher = more stable
Details: c terminus: a fixed tail appended
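Also: lentivirally expressed fusions sorted by FACS into six bins by GFP to DsRed ratio, PSI derived from sequencing read proportions per bin multiplied by bin number.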

Question: With LYTGELDKNERDLMHIAHIAELLE [E8K] as the variant, how does the protein stability index read?
Answer: 2.28

Question: For LYTGELDQNERDLMHIAHIAELLE [E8Q], which protein stability index is on record?
Answer: 2.85

Question: For LYTGELDFNERDLMHIAHIAELLE [E8F], which protein stability index is on record?
Answer: 1.96

Question: For LYTGELDRNERDLMHIAHIAELLE [E8R], which protein stability index is on record?
Answer: 2.46

Question: For LYTGELDCNERDLMHIAHIAELLE [E8C], which protein stability index is on record?
Answer: 2.05

Question: For LYTGELDMNERDLMHIAHIAELLE [E8M], which protein stability index is on record?
Answer: 1.78

Question: Which protein stability index does the source give for LYTGELDSNERDLMHIAHIAELLE [E8S] here?
Answer: 2.29

Question: For LYTGELDTNERDLMHIAHIAELLE [E8T], which protein stability index is on record?
Answer: 2.4

Question: Which protein stability index does the source give for LYTGELDLNERDLMHIAHIAELLE [E8L] here?
Answer: 1.57

Question: With LYTGELDPNERDLMHIAHIAELLE [E8P] as the variant, how does the protein stability index read?
Answer: 2.15

Question: Which protein stability index does the source give for LYTWELDENERDLMHIAHIAELLE [G4W] here?
Answer: 1.5

Question: For LYTMELDENERDLMHIAHIAELLE [G4M], which protein stability index is on record?
Answer: 1.77

Question: Which protein stability index does the source give for LYTEELDENERDLMHIAHIAELLE [G4E] here?
Answer: 2.32

Question: With LYTHELDENERDLMHIAHIAELLE [G4H] as the variant, how does the protein stability index read?
Answer: 1.99

Question: Which protein stability index does the source give for LYTSELDENERDLMHIAHIAELLE [G4S] here?
Answer: 2.42

Question: Which protein stability index does the source give for LYTAELDENERDLMHIAHIAELLE [G4A] here?
Answer: 2.31

Question: For LYTPELDENERDLMHIAHIAELLE [G4P], which protein stability index is on record?
Answer: 2.46

Question: With LYTDELDENERDLMHIAHIAELLE [G4D] as the variant, how does the protein stability index read?
Answer: 2.53

Question: Which protein stability index does the source give for LYTKELDENERDLMHIAHIAELLE [G4K] here?
Answer: 1.89

Question: For LYTIELDENERDLMHIAHIAELLE [G4I], which protein stability index is on record?
Answer: 2.56

Question: Which protein stability index does the source give for LYTVELDENERDLMHIAHIAELLE [G4V] here?
Answer: 1.44

Question: For LYTYELDENERDLMHIAHIAELLE [G4Y], which protein stability index is on record?
Answer: 2.2

Question: Which protein stability index does the source give for LYTFELDENERDLMHIAHIAELLE [G4F] here?
Answer: 1.93

Question: Which protein stability index does the source give for LYTNELDENERDLMHIAHIAELLE [G4N] here?
Answer: 2.05

Question: Which protein stability index does the source give for LYTRELDENERDLMHIAHIAELLE [G4R] here?
Answer: 2.29

Question: With LYTLELDENERDLMHIAHIAELLE [G4L] as the variant, how does the protein stability index read?
Answer: 1.76

Question: For LYTCELDENERDLMHIAHIAELLE [G4C], which protein stability index is on record?
Answer: 1.87

Question: For LYTTELDENERDLMHIAHIAELLE [G4T], which protein stability index is on record?
Answer: 2.25

Question: For LYTQELDENERDLMHIAHIAELLE [G4Q], which protein stability index is on record?
Answer: 2.7

Question: For LKTGELDENERDLMHIAHIAELLE [Y2K], which protein stability index is on record?
Answer: 2.74

Question: For LFTGELDENERDLMHIAHIAELLE [Y2F], which protein stability index is on record?
Answer: 2.78

Question: With LNTGELDENERDLMHIAHIAELLE [Y2N] as the variant, how does the protein stability index read?
Answer: 3.17

Question: For LITGELDENERDLMHIAHIAELLE [Y2I], which protein stability index is on record?
Answer: 2.54

Question: With LATGELDENERDLMHIAHIAELLE [Y2A] as the variant, how does the protein stability index read?
Answer: 2.73

Question: For LGTGELDENERDLMHIAHIAELLE [Y2G], which protein stability index is on record?
Answer: 3.25

Question: With LHTGELDENERDLMHIAHIAELLE [Y2H] as the variant, how does the protein stability index read?
Answer: 3.8

Question: Which protein stability index does the source give for LCTGELDENERDLMHIAHIAELLE [Y2C] here?
Answer: 2.04

Question: With LTTGELDENERDLMHIAHIAELLE [Y2T] as the variant, how does the protein stability index read?
Answer: 3.44

Question: Which protein stability index does the source give for LQTGELDENERDLMHIAHIAELLE [Y2Q] here?
Answer: 3.01

Question: Which protein stability index does the source give for LWTGELDENERDLMHIAHIAELLE [Y2W] here?
Answer: 1.69

Question: With LMTGELDENERDLMHIAHIAELLE [Y2M] as the variant, how does the protein stability index read?
Answer: 2.73

Question: For LLTGELDENERDLMHIAHIAELLE [Y2L], which protein stability index is on record?
Answer: 2.37

Question: With LETGELDENERDLMHIAHIAELLE [Y2E] as the variant, how does the protein stability index read?
Answer: 3.49

Question: For LSTGELDENERDLMHIAHIAELLE [Y2S], which protein stability index is on record?
Answer: 3.34

Question: Which protein stability index does the source give for LDTGELDENERDLMHIAHIAELLE [Y2D] here?
Answer: 3.68

Question: Which protein stability index does the source give for LPTGELDENERDLMHIAHIAELLE [Y2P] here?
Answer: 3.2

Question: Which protein stability index does the source give for LRTGELDENERDLMHIAHIAELLE [Y2R] here?
Answer: 3.21

Question: With LVTGELDENERDLMHIAHIAELLE [Y2V] as the variant, how does the protein stability index read?
Answer: 3.45

Question: For LYTGELDEGERDLMHIAHIAELLE [N9G], which protein stability index is on record?
Answer: 2.82

Question: Which protein stability index does the source give for LYTGELDEDERDLMHIAHIAELLE [N9D] here?
Answer: 2.59

Question: For LYTGELDEFERDLMHIAHIAELLE [N9F], which protein stability index is on record?
Answer: 1.34

Question: Which protein stability index does the source give for LYTGELDECERDLMHIAHIAELLE [N9C] here?
Answer: 1.85

Question: With LYTGELDEHERDLMHIAHIAELLE [N9H] as the variant, how does the protein stability index read?
Answer: 2.54

Question: With LYTGELDEEERDLMHIAHIAELLE [N9E] as the variant, how does the protein stability index read?
Answer: 3.15

Question: For LYTGELDEIERDLMHIAHIAELLE [N9I], which protein stability index is on record?
Answer: 3.37

Question: For LYTGELDEAERDLMHIAHIAELLE [N9A], which protein stability index is on record?
Answer: 2.57

Question: For LYPGELDENERDLMHIAHIAELLE [T3P], which protein stability index is on record?
Answer: 2.14

Question: For LYDGELDENERDLMHIAHIAELLE [T3D], which protein stability index is on record?
Answer: 3

Question: Which protein stability index does the source give for LYHGELDENERDLMHIAHIAELLE [T3H] here?
Answer: 2.08

Question: Which protein stability index does the source give for LYWGELDENERDLMHIAHIAELLE [T3W] here?
Answer: 1.54

Question: With LYMGELDENERDLMHIAHIAELLE [T3M] as the variant, how does the protein stability index read?
Answer: 2.23

Question: Which protein stability index does the source give for LYLGELDENERDLMHIAHIAELLE [T3L] here?
Answer: 1.94

Question: Which protein stability index does the source give for LYEGELDENERDLMHIAHIAELLE [T3E] here?
Answer: 2.98

Question: Which protein stability index does the source give for LYGGELDENERDLMHIAHIAELLE [T3G] here?
Answer: 1.91

Question: With LYYGELDENERDLMHIAHIAELLE [T3Y] as the variant, how does the protein stability index read?
Answer: 2.08

Question: With LYNGELDENERDLMHIAHIAELLE [T3N] as the variant, how does the protein stability index read?
Answer: 2.25

Question: For LYFGELDENERDLMHIAHIAELLE [T3F], which protein stability index is on record?
Answer: 3.07

Question: Which protein stability index does the source give for LYKGELDENERDLMHIAHIAELLE [T3K] here?
Answer: 2.16

Question: For LYQGELDENERDLMHIAHIAELLE [T3Q], which protein stability index is on record?
Answer: 2.58

Question: Which protein stability index does the source give for LYVGELDENERDLMHIAHIAELLE [T3V] here?
Answer: 2.21

Question: With LYAGELDENERDLMHIAHIAELLE [T3A] as the variant, how does the protein stability index read?
Answer: 2.58

Question: With LYSGELDENERDLMHIAHIAELLE [T3S] as the variant, how does the protein stability index read?
Answer: 2.61

Question: Which protein stability index does the source give for LYIGELDENERDLMHIAHIAELLE [T3I] here?
Answer: 2.15

Question: Which protein stability index does the source give for LYCGELDENERDLMHIAHIAELLE [T3C] here?
Answer: 2.31

Question: For LYRGELDENERDLMHIAHIAELLE [T3R], which protein stability index is on record?
Answer: 1.98

Question: Which protein stability index does the source give for LYTGSLDENERDLMHIAHIAELLE [E5S] here?
Answer: 2.54

Question: With LYTGGLDENERDLMHIAHIAELLE [E5G] as the variant, how does the protein stability index read?
Answer: 2.34

Question: For LYTGWLDENERDLMHIAHIAELLE [E5W], which protein stability index is on record?
Answer: 2.3

Question: Which protein stability index does the source give for LYTGVLDENERDLMHIAHIAELLE [E5V] here?
Answer: 1.81

Question: Which protein stability index does the source give for LYTGRLDENERDLMHIAHIAELLE [E5R] here?
Answer: 3.45

Question: Which protein stability index does the source give for LYTGDLDENERDLMHIAHIAELLE [E5D] here?
Answer: 2.63

Question: Which protein stability index does the source give for LYTGALDENERDLMHIAHIAELLE [E5A] here?
Answer: 2.12

Question: With LYTGNLDENERDLMHIAHIAELLE [E5N] as the variant, how does the protein stability index read?
Answer: 2.23

Question: For LYTGMLDENERDLMHIAHIAELLE [E5M], which protein stability index is on record?
Answer: 2.1

Question: For LYTGTLDENERDLMHIAHIAELLE [E5T], which protein stability index is on record?
Answer: 2.75

Question: Which protein stability index does the source give for LYTGHLDENERDLMHIAHIAELLE [E5H] here?
Answer: 2.24

Question: Which protein stability index does the source give for LYTGKLDENERDLMHIAHIAELLE [E5K] here?
Answer: 2.75

Question: For LYTGFLDENERDLMHIAHIAELLE [E5F], which protein stability index is on record?
Answer: 2.71

Question: Which protein stability index does the source give for LYTGCLDENERDLMHIAHIAELLE [E5C] here?
Answer: 1.67

Question: Which protein stability index does the source give for LYTGILDENERDLMHIAHIAELLE [E5I] here?
Answer: 1.65

Question: With LYTGLLDENERDLMHIAHIAELLE [E5L] as the variant, how does the protein stability index read?
Answer: 2.02

Question: For LYTGQLDENERDLMHIAHIAELLE [E5Q], which protein stability index is on record?
Answer: 2.22

Question: With LYTGYLDENERDLMHIAHIAELLE [E5Y] as the variant, how does the protein stability index read?
Answer: 1.9

Question: Which protein stability index does the source give for LYTGPLDENERDLMHIAHIAELLE [E5P] here?
Answer: 2.52

Reference: the supplement of paper PMC10567573
